Biological target: soluble αVβ3 headpiece (human) (UniProt P06756)
Assay: fluorescence polarisation

- fold-lower affinity than for αVβ6: 1000 fold
Substance: nonapeptide containing RGD from pro-TGF-β3

Reference: publication PMC4717663
